Patent publication US20180298051A1 (Scripps Research, published 2018)
Ends that are not written are not given here.

Target: T1, RXFP1 on RXFP1 CRE-Bla cells (human, UniProt Q9HBX9 1-757)
T1 sequence (looked up): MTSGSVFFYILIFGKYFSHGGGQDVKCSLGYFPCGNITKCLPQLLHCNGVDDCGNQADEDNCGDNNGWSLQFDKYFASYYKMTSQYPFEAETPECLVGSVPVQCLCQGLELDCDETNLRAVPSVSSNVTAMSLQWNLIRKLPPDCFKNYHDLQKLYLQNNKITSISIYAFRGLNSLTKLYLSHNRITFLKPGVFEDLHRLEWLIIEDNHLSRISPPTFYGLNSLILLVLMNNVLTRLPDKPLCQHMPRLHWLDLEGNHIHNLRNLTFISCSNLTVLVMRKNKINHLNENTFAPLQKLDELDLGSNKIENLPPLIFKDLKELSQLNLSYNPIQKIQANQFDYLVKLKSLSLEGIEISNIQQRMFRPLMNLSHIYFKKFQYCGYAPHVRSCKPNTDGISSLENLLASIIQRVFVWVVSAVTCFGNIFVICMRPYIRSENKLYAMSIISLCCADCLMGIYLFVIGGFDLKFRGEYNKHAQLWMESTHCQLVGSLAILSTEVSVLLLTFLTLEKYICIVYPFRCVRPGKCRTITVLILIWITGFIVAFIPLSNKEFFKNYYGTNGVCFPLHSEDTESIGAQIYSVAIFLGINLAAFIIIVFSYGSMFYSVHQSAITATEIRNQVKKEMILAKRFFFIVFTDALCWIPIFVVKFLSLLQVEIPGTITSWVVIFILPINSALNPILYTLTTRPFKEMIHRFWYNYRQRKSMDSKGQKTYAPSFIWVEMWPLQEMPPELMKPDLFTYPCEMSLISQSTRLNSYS
Assay: cell-based or functional assay

B1: relaxin-H2 protein (R&D Systems) (ligand)
chain 1: QLYSALANKCCHVGCTKRSLARFC
chain 2: DSWMEEVIKLCGRELVRAQIAICGMSTWS
modifications: disulfide (positions not given here); ends not checked; also: three disulfides: two between A and B chains, one within A chain, pairings not given here
With B1 the “EC50, in vitro FRET assay, RXFP1 CRE-Bla cells” value was 4.9 nM.
